Patent US10745461B2, “Pulsed introduction of low-dose RANKL as a therapy for diet-induced atherosclerosis” (Saint Louis University, priority 2015, dated 2020)

Assays:
[1] = test system: FoxP3+ CD8 T-cells (TcREG); assay: In vivo TcREG induction: GFP negative CD8 T-cells adoptively transferred into OT-I Rag-/- mice
Experimental: FIGS. 1A, 1B and 1C indicate that TcREG are induced by activated osteoclasis. […] In the absence of RANK L treatment, very low level of conversion was observed after three days. […] ZA was administered intravenously one week prior to adoptive transfer of CD8 T-cells.
It was first determined the dose of RANKL that produced the maximal number FoxP3^+ CD8 T-cells in the bone marrow. RANKL was administered into FoxP3-GFP reporter mice at various doses for two consecutive days. Fifty hours after first dose, the mice were sacrificed and the numbers of CD8 T-cells that were GFP positive cells in the bone marrow were measured. […] The increased levels of FoxP3 in the bone marrow could either be due to recruitment of TcREG to the bone marrow or induction of FoxP3 expression in cells that were FoxP3 negative. To test for induction FACS sorted the GFP negative population of CD8 (Thy 1.2+ that were CD44 negative or naïve) from the spleens and bone marrow to high purity (FIG. 1C first panel) and adoptively transferred them into congenically marked (Thy 1.1) OT-I Rag^−/− mice. […] In the absence of RANKL administration low levels […] CD8 T-cell were detected (FIGS. 1B and C second panel), but RANKL administration (0.125 mg/kg) yielded ˜1% […] Thy 1.2 T-cells (FIGS. 1B and 1C third panel). […]

[2] = test system: aortic plaque development and bone loss; assay: Ovariectomized WT or LDLR-lacking female mice on Western Diet, pulsed low dose RANKL 14 days and 6 weeks post surgery; format: in vivo
Excerpt: With specific regards to determining an effect on atherosclerosis, ten-week old female mice that were either C57BL/6J (WT) or lacking low-density lipoprotein receptor (LDLR) were randomly assigned to chow (LabDiet 5L0B, containing 5% fat and 0.014% cholesterol, by weight) or a “Western Diet” that was high in fat and cholesterol (Teklad TD96121, containing 21% fat and 1.25% cholesterol). When the mice were 12 weeks old, all animals were surgically operated. Half the mice were ovariectomized (simulating menopause), and the other half had sham surgery. One group of ovariectomized mice on the Western Diet were treated with pulsed low dose RANKL (0.125 mg/kg) 14 days post surgery (14 weeks of age) and 6 weeks post surgery (18 weeks old). All mice were sacrificed at 20 weeks of age, and bone loss and aortic plaque development were analyzed.

B1: receptor activator of NF-κB ligand (protein, UniProt O35235 139-316, looked up)
Tumor necrosis factor ligand …: FSGAPAMMEGSWLDVAQRGKPEAQPFAHLTINAASIPSGSHKVTLSSWYHDRGWAKISNMTLSNGKLRVNQDGFYYLYANICFRHHETSGSVPTDYLQLMVYVVKTSIKIPSSHNLMKGGSTKNWSGNSEFHFYSINVGGFFKLRAGEEISIQVSNPSLLDPDQDATYFGAFKVQDID
modifications: GST tag
[1]; 0.125 mg/kg, 50 hrs after RANKL treatment, 3 days after T-cell transfer
  TcREG induction by RANKL: robustly induced TcREG
[1]; RANKL 0.125 mg/kg, OT-I Rag-/- recipients
  GFP+ Thy 1.2 T-cells after RANKL administration: ~1%
[2]; low dose RANKL treated mice
  plaque volume: plaque volume in low dose treated mice was also reduced
[2]; low dose RANKL vs without treatment
  weight gain: less weight gain
[2]; ovariectomized mice, compared to Zolendronate
  inflammation: reduced
[2]; ovariectomized, western diet
  number of atherosclerotic lesions in the aortic root: the number of atherosclerotic lesions in the aortic root was reduced
  osteoporosis: ameliorate osteoporosis
